Experiment [1] has as its target T1, Impα3 (Homo sapiens, UniProt O00629).
T1 construct: made in house
T1 sequence (O00629 1-521): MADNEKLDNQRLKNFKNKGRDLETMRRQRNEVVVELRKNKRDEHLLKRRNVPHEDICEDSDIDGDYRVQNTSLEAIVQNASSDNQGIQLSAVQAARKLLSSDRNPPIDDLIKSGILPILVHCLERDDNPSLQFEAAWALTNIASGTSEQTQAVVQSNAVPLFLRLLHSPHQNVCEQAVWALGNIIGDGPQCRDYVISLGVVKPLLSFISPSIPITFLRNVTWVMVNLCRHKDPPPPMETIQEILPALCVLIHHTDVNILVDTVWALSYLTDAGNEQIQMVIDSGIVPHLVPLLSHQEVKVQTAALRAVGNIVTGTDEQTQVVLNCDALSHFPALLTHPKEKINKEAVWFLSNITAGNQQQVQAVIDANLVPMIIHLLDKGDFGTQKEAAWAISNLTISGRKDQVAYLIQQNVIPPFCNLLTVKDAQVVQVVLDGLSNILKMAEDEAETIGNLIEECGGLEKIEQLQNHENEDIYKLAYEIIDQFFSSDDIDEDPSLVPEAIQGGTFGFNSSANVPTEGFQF
Put plainly: Isothermal titration calorimetry (ITC), Impα3. Format: binding. As to the method:
(§1) Calorimetric titrations for testing the interaction of PADI4, as well as for the interaction of NLS1/2-PADI4 peptides, with both importins, Impα3 and ΔImpα3, were carried out in an Auto-iTC200 automated high-sensitivity calorimeter (MicroCal, Malvern-Panalytical, Malvern, UK). Experiments were performed in 20 mM Tris buffer (pH 7.5), 5 mM TCEP, 150 mM NaCl, and 5% glycerol at 25 °C. PADI4 or the peptide solution (100 μM) in the injection syringe was titrated into the importin solution (10 μM) in the calorimetric cell. The remaining experimental and processing details have been described previously. Due to the presence of glycerol in solution, background injection (included as an adjustable parameter in data fitting) was rather large. The data analysis was conducted in Origin 7.0 (OriginLab, Northampton, MA, USA) with user-defined fitting functions.

Experiment [2] addresses T1, Impα3. Put plainly: Far-UV CD, complex versus addition spectrum, Impα3. It is filed as binding. Particulars: 25 °C; average of six scans. The source says: Far-UV CD spectra were collected on a Jasco J810 spectropolarimeter (Jasco, Tokyo, Japan) interfaced with a Peltier unit. The instrument was periodically calibrated with (+)-10-camphorsulfonic acid. A cell of path length 0.1 cm was used (Hellma, Kruibeke, Belgium). All spectra were corrected by subtracting the corresponding baseline. Concentration of each polypeptide (importin species and either NLS1/2-PADI4 or PADI4) and the buffers were the same used in the fluorescence experiments (Section 2.4).
Isothermal wavelength spectra of each isolated macromolecule and that of the complex were acquired as an average of six scans, at a scan speed of 50 nm/min, with a response time of 2 s and a bandwidth of 1 nm. Handling and preparation of samples were the same described in Section 2.4.1.

The target of experiment [3] is ΔImpα3. Put plainly: Fluorescence titration of PADI4 with ΔImpα3. Particulars: fluorescence at 330 nm; 3 µM PADI4, 0–25 µM importin; 20 mM Tris pH 7.5, 5 mM TCEP, 150 mM NaCl, 5% glycerol, 25 °C; titration repeated three times; ± fitting error. Format: binding, human. As to the method:
(§2) For the titration between either Impα3 or ΔImpα3 and intact PADI4, increasing amounts of the corresponding importin species, in the concentration range 0–25 µM, were added to a solution with a fixed concentration of intact PADI4 (3 µM). Experiments were carried out in 20 mM Tris buffer (pH 7.5), 5 mM TCEP, 150 mM NaCl, and 5% glycerol at 25 °C (the storage buffer of PADI4). The experimental setup was the same as in the steady-state fluorescence experiments. Blank corrections containing the amount of each importin species were subtracted. Inner-filter effects were corrected. Each titration (Impα3 with PADI4 or ΔImpα3 with PADI4) was repeated three times, using new samples. In the three cases, the variations in the results were lower than 10%.
(§3) Handling and preparation of samples were the same described in Section 2.4.1. The dissociation constant of the corresponding complex, Kd, was calculated by fitting the binding isotherm to the general binding model, explicitly considering ligand depletion. […] Fitting to Equation (1) was carried out using KaleidaGraph (Synergy software, Reading, PA, USA).

In experiment [4] the test system is ΔImpα3. Nature of the experiment: Isothermal titration calorimetry (ITC), ΔImpα3. It is filed as binding, human. The protocol:
as §1
A general note: Isothermal titration calorimetry measures the heat released or taken up as one component is titrated into another.

In experiment [5] the target is T1, Impα3. Nature of the experiment: Fluorescence titration of PADI4 with Impα3. As to conditions: fluorescence at 330 nm; 3 µM PADI4, 0–25 µM importin; 20 mM Tris pH 7.5, 5 mM TCEP, 150 mM NaCl, 5% glycerol, 25 °C; titration repeated three times; ± fitting error. Format: binding. The protocol: as §2, §3
For experiment [6], the target named is T1, Impα3. Nature of the experiment: Steady-state fluorescence, complex versus addition spectrum, Impα3. Format: binding. As to conditions: 20 µM PADI4 or peptide, 2 µM Impα3; 50 mM sodium phosphate pH 7.0, 25 °C; excitation 280 or 295 nm; triplicates. As to the method: Spectra were collected on a Cary Varian spectrofluorometer (Agilent, Santa Clara, CA, USA), interfaced with a Peltier unit. Following the standard protocols used in our laboratories, the samples were prepared the day before and left overnight at 5 °C; before experiments, samples were left for 1 h at 25 °C, where experiments were acquired. A 1 cm pathlength quartz cell (Hellma, Kruibeke, Belgium) was used. The concentration of PADI4 or NLS1/2-PADI4 peptides was 20 µM, and that of each importin species was 2 µM. Samples containing the corresponding isolated peptides, the isolated PADI4, the isolated corresponding importin species, and the corresponding mixtures (at the concentrations indicated above) were prepared. Experiments were performed with samples in 50 mM sodium phosphate buffer, pH 7.0. Fluorescence experiments were repeated in triplicates with newly prepared samples. Variations of results among the experiments were lower than 5%.
Polypeptide samples were excited either at 280 or 295 nm (although NLS2-PADI4 has only a single […]). The other experimental parameters used in the experiments have been described elsewhere. Appropriate blank corrections were made in all spectra.

[7] abbreviates: Impα3, pH 7.5, 25 °C, 95% confidence interval in parentheses.

Data on one substance can be found in PMC9319256, “Human Enzyme PADI4 Binds to the Nuclear Carrier Importin α3” (Cells, 2022).

In general, Kd refers to the concentration at which binding is half-saturated.

On to “PADI4: human peptidyl-arginine deiminase 4, intact protein, purified as previously described”, for which the ΔG in experiment [1] (Impα3, pH 7.5, 25 °C) was -7.3 kcal/mol; in experiment [4] (ΔImpα3, pH 7.5, 25 °C) it was -8.0 kcal/mol. The “n (binding stoichiometry or percentage of binding-competent protein)” value in experiment [1] (setting [7]) is listed as 0.97 (0.94, 1.00). Besides, the “ΔH (binding enthalpy)” value in experiment [1] (setting [7]) is −65.5 (−72.0, −60.5) kcal/mol. For the same substance, the “Ka (association constant)” value is on record as 2.1 (1.7, 2.5) 10^5 M^−1 in experiment [1] (PADI4 or peptide (100 μM) titrated into Impα3 (10 μM), 20 mM Tris pH 7.5, 5 mM TCEP, 150 mM NaCl, 5% glycerol, 25 °C, 95% confidence interval in parentheses) and 7.8 (7.3, 8.5) 10^5 M^−1 in experiment [4] (PADI4 or peptide (100 μM) titrated into ΔImpα3 (10 μM), 20 mM Tris pH 7.5, 5 mM TCEP, 150 mM NaCl, 5% glycerol, 25 °C, 95% confidence interval in parentheses). For the same substance, the Kd in experiment [1] (PADI4 or peptide (100 μM) titrated into Impα3 (10 μM), 20 mM Tris pH 7.5, 5 mM TCEP, 150 mM NaCl, 5% glycerol, 25 °C, 95% confidence interval in parentheses, read-out: Kd (dissociation constant)) stood at 4.8 µM; in experiment [3] it was 6 ± 1 µM; in experiment [4] (PADI4 or peptide (100 μM) titrated into ΔImpα3 (10 μM), 20 mM Tris pH 7.5, 5 mM TCEP, 150 mM NaCl, 5% glycerol, 25 °C, 95% confidence interval in parentheses, read-out: Kd (dissociation constant)) it was 1.3 µM; in experiment [5] it was 3.9 ± 0.8 µM. Further, the “change in far-UV CD spectrum of complex versus addition spectrum” value in experiment [2] is “the addition spectrum was not very different from that of the complex”. Also, the “-TΔS” value in experiment [4] (ΔImpα3, pH 7.5, 25 °C) is -30.4 kcal/mol. Moreover, the “change in fluorescence spectrum of complex versus addition spectrum” value in experiment [6] was “a variation in the fluorescence intensity”.
